Values of other authors, collected in article PMC5989558.

Molecular target: CD80 (Homo sapiens) (UniProt P33681)
UniProt P33681, sequence (P33681 35-242): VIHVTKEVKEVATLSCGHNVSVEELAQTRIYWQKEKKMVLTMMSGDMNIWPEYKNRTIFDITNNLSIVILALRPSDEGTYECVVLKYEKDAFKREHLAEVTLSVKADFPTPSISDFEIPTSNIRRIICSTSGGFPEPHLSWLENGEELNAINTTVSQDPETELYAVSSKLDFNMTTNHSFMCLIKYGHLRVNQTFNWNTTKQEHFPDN

CD28 (from UniProt P10747)
Kd: 20 µM
